The series in a line: label from the status in PepcDB records.
Turning to “PEQLRSTVRIGTIDSIVQAWLPRFIERVRELYPGLTLDLNVDTSRGIAREIVERKIDLALLMGPVLEAGLRNVDLGSMDCAWVAAPGFGLGGRRIGLADLVDLPILTFSRNSDPHVWLMRQFEELRLPQPAISNSNSLSAML”, the protein production result was “failed”.
On to “PFMDQSGGGVTFCGGEPLLHPEFLIDILKRCGQQGIHRAVDTTLLARKETVDEVMRNCELLLIDLKSMDSTVHQTFCDVPNELILKNIRRVAEADFPYYIRIPLIEGVNADEKNIKLSAEFLASLPRHPEIINLLPYHDIGKGKHAKLGSIYNPKGYKMQTPSEEVQQQCIQILTDYGLKATIGG”, for which the protein production result is on record as “not failed”.
To “PGRPTMMISTTAMNTALLQWHPPKELPGELLGYRLQYCRADEARPNTIDFGKDDQHFTVTGLHKGTTYIFRLAAKNRAGLGEEFEKEIRTPEDL” belongs “not failed”; to “PHRAVVNFLLSMTNQPGINAGDRLLAVTSISFDISVLELFLPLISGASLVLADSEAAADGQALIKLAMHQDVTFIQATPSNYWLMLEAGWPSTLKLKVLCGGEALPPVLAQKLLQRSDSVWNMYGPTETTIWSAISRVTGSASTLGRP”, “failed”; to “PIIFVPGIMGSRLKFAKGKKQGTRAWDPDSSGFMFLNYGRFDVSAKKKKALLVGPEFDPDYLEVDTNNPKLDKSFLRRYPRADKRGWGGVMWGSYGPILRALHDHQWEEPVGHCFEFPVHAFGYNWTASNMEAGRKLKEYIGATIDHYAKGLRDEAGRPLERLCTRVILVTHSMGGLVARSACVLHGAAEKVLGVVHGVQPATGSPAAYWRMK”, “failed”.
To “PISRLAQIQQARKEKEPDYILLSERGMPRRREFVMQVKVGNEVATGTGPNKKIAKKNAAEAMLLQLGYKASTSLQD” belongs “not failed”.
To “PKKPGTGKHIVYFPGANTYYQACFRDISTACKETGATVHAFNFPGTGLSSGKVREANDLINAGISVVSSLIKQGVHPDDIILQGDCYGASIALEVKKQLEDQ” belongs “failed”.
For “PKPLKNLDGQFCEICGDQIGLTVEGDLFVACNECGFPACRPCYEYERREGTQNCPQCKTRYKRLRGSPRVEGDEDEEDID”, the protein production result is “not failed”.
The value for “PKSQACEPSEPEIEIKLPKLRTLDVFSGCGGLSEGFHQAGISDTLWAIEMWDPAAQAFRLNNPGSTVFTEDCNILLKLVMAGETTNSRGQRLPQKGDVEMLCGGPPCQGFSGMNRFNSRTYSKFKNSLVVSFLSYCDYYRPRFFLLENVRNFVSFKRSMVLKLTLRCLVRMGYQCTFGVLQAGQYGVAQTRRRAIILAAAPGEKLPLFPEPLHVFAPRACQLSVVVDDKKFVSNITRLSSGPFRTITVRDTMSDLPEVRNGASALEISYNGEPQSWFQRQLRGAQYQPILRDHICKDMSALVAARMRHIPLAPGSDWRDLPNIEVRLSDGTMARKLRYTHHDRKNGRSSSGALRGVCSCVEAGKACDPAARQFNTLIPWCLPHTGNRHNHWAGLYGRLEWDGFFSTTVTNPEPMGKQGRVLHPEQHRVVSVRECARSQGFPDTYRLFGNILDKHRQVGNAVPPPLAKAIGLEIKLCML” was “failed”; that for “PLKEQKVINTANITTNSKLDLAEYENGLMNIAKEQFDTENHVLQLNQYIPEKLVDELVAKVKAPVLTNIIEQDYFGKQNSNELSLSGVMIGLAMSSSVSNEEAMSKGTEVANQLIEAIHKNDKYNKSPITFAIFKQESTSSLKNGTYIASATVQKNDTNIGNWNAIEEKAYSYPSDEFTQAHGEDNTKIDDFAKEMKGFSPGDFIPVNAKVSYKKNQMDTLNMNIVIKYNGKTELMALTQLAAQIMLEQLPKDAKVQLQIKSENKIEAIVIKEKNSDKPFV” was “not failed”.
The value for “PLKEQKVINTANITTNSKLDLAEYENGLMNIAKEQFDTENHVLQLNQYIPEKLVDELVAKVKAPVLTNIIEQDYFGKQNSNELSLSGVMIGLAMSSSVSNEEAMSKGTEVANQLIEAIHKNDKYNKSPITFAIFKQESTSSLKNGTYIASATVQKNDTNIGNWNAIEEKAYSYPSDEFTQAHGEDNTKIDDFAKEMKGFSPGDFIPVNAKVSYKKNQMDTLNMNIVIKYNGKTELMALTQLAAQIMLEQLPKDAKVQLQIKSENKIEAIVIKEKNSDKPFVSFL” was “not failed”; that for “PNRRADDNATIRVTNLSEDTRETDLQELFRPFGSISRIYLAKDKTTGQSKGFAFISFHRREDAARAIAGVSGFGYDHLILNVEWAKPSTN” was “not failed”.
To “PPLEINSRVSLKVGETIESGTVIFCDVLPGKESLGYFVGVDMDNPIGNWDGRFDGVQLCSFACVESTILLHINDIIPES” belongs “not failed”.
As for “PPPAPIPDLKVFEREGVQLNLSFIRPPENPALLLITITATNFSEGDVTHFICQAAVPKSLQLQLQAPSGNTVPARGGLPITQLFRILNPNKAPLRLKLRLTYDHFHQSVQEIFEVNNLPVESWQ”, the protein production result is listed as “not failed”.
To “PQEKLKLLAFTGTKGKTTAAYFAYHMLKESYKPAMFSTMNTTLDGKTFFKSQLTTPESLDLFAMMAECVTNGMTHLIMEVSSQAYLVDRVYGLTFDVGVFLNISPDHIGPIEHPTFEDYFYHKRLLMENSRAVVINSGMDHFSFLADQVADQEHVFYGPLSDNQITTSQAFSFEAKGQLAGHYDIQLIGHFNQENAMAAGLACLRLGASLADIQKGIAKTRVPGR” belongs “failed”; to “PQLVRTHEDVPGPVGHLSFSEILDTSLKVSWQEPGEKNGILTGYRISWEEYNRTNTRVTHYLPNVTLEYRVTGLTALTTYTIEVAAMTSKGQGQVSASTISSGVPP”, “not failed”; to “PRSRTKISLEALGILQSFIHDVGLYPDQEAIHTLSAQLDLPKHTIIKFFQNQRYHVKH”, “not failed”.
For the sequence “PRWSVAAATAVTDFCDRLACDRVALGRRHRRRSKVVSLSHSGNFQRSSELVQRIADAMDEAIDQGEPIRMPQDSDNTLTLTAAHQELIHSGVPRAVLTVLLRRDGRVTGAMVLERGGNNPFRDEEVELVEAVAGILGPVLEEKRLNDR”, the protein production entry was “failed”.
To “PSFNLGYIGLNNRNEYLKNPKVRQAISMAINRRAVVDAFWSGLGRTDTSIVPPALGWATSSKVPADYKFDPAAAKKLLAEAGYPNGFTLDFWYMPITRSYFPQPKASAEAMAADLADVGIKVNLKTEDWAKYLDDLFAGRLSMFQIGLIGDYGDPDYFYGALYNPTSTNDIGWNAPAELDTLLQQARSGLTRQARAQAYARIHELTYNAGYRIPLVHSQ” belongs “failed”; to “PSGATGKDGLAIPVGKDTAKSSLTVWEDFRCPACKIFETTYRPTLHELVGAGKLKIDYHLVTIIDDGRGGSGSRQAANAAACAQDAGKFTAYHDVLYDNQPDETVDSFADDSKLIELAGKVDGLDTPAFRKCVKDGTHNSWVVKSNAAFDSGGFKGTPTVLFGGKNLAADPTMTPAKLKQMVEAANK”, “failed”; to “PSGFPQNLHVTGLTTSTTELAWDPPVLAERNGRIISYTVVFRDINSQQELQNITTDTRFTLTGLKPDTTYDIKVRAWTSKGSGPLSPSIQSRTMPV”, “not failed”.
“PSNAMKQAWLQISQDNKLMSCNDTSKANALLDMVTQGLNPAKNQCYFIPYGNKMQLQRSYHGNVMMLKRDAGAQDVVAQVIYKGDTFKQEMGETGRIKAIKHEQDFFNIDKENIIGAYCTIVFNDGRDNYIEVMTIEQIKQAWMQSSMIKDEKALQNSKTHNNFKEEMAKKTVINRAAKRYINTSTDSNLFKYAQESEQRQRKEVLDAEVEENANQE”: the protein production result is recorded as “not failed”.
The value for “PSPGGQMHAGISSFQQSNSSGTYGPQMSQYGPQGNYSRPPAYSGVPSASYSGPGPGMGISANNQMHGQGPSQPCGAVPLGRMPSAGMQNRPFPGNMSSMTPSSPGMSQQGGPGMGPPMPTVNRKAQEAAAAVMQAAANSAQSRQGSFPGMNQSGLMASSSPYSQPMNNSSSLMNTQAPPYSMAPAMVNSSAASVGLADMMSPGESKLPLPLKADGKEEGTPQPESKSKDSYSSQGISQPPTPGNLPVPSPMSPSSASISSFHGDESDSISSPGWPKTPSSPKSSSSTTTGEKITKVYELGNEPERKLWVDRYLTFMEERGSPVSSLPAVGKKPLDLFRLYVCVKEIGGLAQVNKNKKWRELATNLNVGTSSSAASSLKKQYIQYLFAFECKIERGEEPPPEVFSTGDTKKQPKLQPPSPANSGSLQGPQTPQSTGSNSMAEVPGDLKPPTPASTPHGQMTPMQGGRSSTISVHDPFSDVSDSSFPKRNSMTPNAPYQQGMSMPDVMGRMPYEPNKDPFGGMRKVPGSSEPFMTQGQMPNSSMQDMYNQSPSGAMSNLGMGQRQQFPYGASYDRRHEPYGQQYPGQGPPSGQPPYGGHQPGLYPQQPNYKRHMDGMYGPPAKRHEGDMYNMQYSSQQQEMYNQYGGSYSGPDRRPIQGQYPYPYSRERMQGPGQIQTHGIPLQMMGGPLQSSSSEGPQQNMWAARNDMPYPYQNRQGPGGPTQAPPYPGMNRTDDMMVPDQRINHESQWPSHVSQRQPYMSSSASMQPITRPPQPSYQTPPSLPNHISRAPSPASFQRSLENRMSPSKSPFLPSMKMQKVMPTVPTSQVTGPPPQPPPIRREITFPPGSVEASQPVLKQRRKITSKDIVTPEAWRVMMSLKSGLLAESTWALDTINILLYDDSTVATFNLSQLSGFLELLVEYFRKCLIDIFGILMEYEVGDPSQKALDHNAARKDDSQSLADDSGKEEEDAECIDDDEEDEEDEEEDSEKTESDEKSSIALTAPDAAADPKEKPKQASKFDKLPIKIVKKNNLFVVDRSDKLGRVQEFNSGLLHWQLGGGDTTEHIQTHFESKMEIPPRRRPPPPLSSAGRKKEQEGKGDSEEQQEKSIIATIDDVLSARPGALPEDANPGPQTESSKFPFGIQQAKSHRNIKLLEDEPRSRDETPLCTIAHWQDSLAKRCICVSNIVRSLSFVPGNDAEMSKHPGLVLILGKLILLHHEHPERKRAPQTYEKEEDEDKGVACSKDEWWWDCLEVLRDNTLVTLANISGQLDLSAYTESICLPILDGLLHWMVCPSAEAQDPFPTVGPNSVLSPQRLVLETLCKLSIQDNNVDLILATPPFSRQEKFYATLVRYVGDRKNPVCREMSMALLSNLAQGDALAARAIAVQKGSIGNLISFLEDGVTMAQYQQSQHNLMHMQPPPLEPPSVDMMCRAAKALLAMARVDENRSEFLLHEGRLLDISISAVLNSLVASVICDVLFQIGQL” was “not failed”; that for “PSYTVTVATGSQWFAGTDDYIYLSLVGSAGCSEKHLLDKPFYNDFERGAVDSYDVTVDEELGEIQLVRIEKRKYWLNDDWYLKYITLKTPHGDYIEFPCYRWITGDVEVVLRDGRAKLARDDQIHILKQHRRKELETRQKQYRWMEWNPGFPLSIDAKCHKDLPRDIQFDSEKGVDFVLNYSKAMENLFINRFMHMFQSSWNDFADFEKIFVKISNTISERVMNHWQEDLMFGYQFLNGCNPVLIRRCTELPEKLPVTTEMVECSLERQLSLEQEVQQGNIFIVDFELLDGIDANKTDPCTLQFLAAPICLLYKNLANKIVPIAIQLNQIPGDENPIFLPSDAKYDWLLAKIWVRSSDFHVHQTITHLLRTHLVSEVFGIAMYRQLPAVHPIFKLLVAHVRFTIAINTKAREQLICECGLFDKANATGGGGHVQMVQRAMKDLTYASLCFPEAIKARGMESKEDIPYYFYRDDGLLVWEAIRTFTAEVVDIYYEGDQVVEEDPELQDFVNDVYVYGMRGRKSSGFPKSVKSREQLSEYLTVVIFTASAQHAAVNFGQYDWCSWI” was “failed”; that for “PVGAVMTPRPEVDMIDLSDPPDQIRATFASSPHSRLPATDGDRDDPIGIIQSKDVLEVYLRGETPDFRALVRDAPVIPASADARDALIMLRNASVHMGLVYDEFGGFEGVVSTADILESIVGAFSSEDG” was “failed”.
Regarding “PVPATPILQLEECCTHNNSATLSWKQPPLSTVPADGYILELDDGNGGQFREVYVGKETMCTVDGLHFNSTYNARVKAFNKTGVSPYSKTLVLQTSEG”, the protein production result is “not failed”.

The values are drawn from a protein production outcome set (Wang et al. 2014).
